# Test results taken from patent US20100135987A1.
# “And” between values parts separate entries of the source, which are not always exact repeats. Identical values can stand only once.
# What was measured:
# [1] = biological target: Protein A (ligand of MabSelect resin, GE Healthcare) (UniProt P38507); assay: dynamic binding capacity of MabSelect column at 5% breakthrough, 300 cm/hr to 35 mg Ab/mL resin, then 150 cm/hr
# [2] = biological target: Protein A (ligand of MabSelect resin, GE Healthcare) (UniProt P38507); assay: dynamic binding capacity of MabSelect column at 5% breakthrough, load at 300 cm/hr, average of Exp. 1 and 2
# [3] = biological target: Protein A (ligand of MabSelect resin, GE Healthcare) (UniProt P38507); assay: dynamic binding capacity of MabSelect column at 5% breakthrough, load at 300 cm/hr
# [4] = biological target: Protein A (ligand of MabSelect resin, GE Healthcare) (UniProt P38507); assay: dynamic binding capacity of MabSelect column at 5% breakthrough, dual-flow rate load, average of Exp. 3 and 4
substance,measurement,setting,value
anti-IL-12 antibody (ABT-874),DBC at 5% BT (mg Ab/mL resin),[1],51.6 and 51.7
same,DBC at 5% BT (mg Ab/mL resin),[2],44.3
same,DBC at 5% BT (mg Ab/mL resin),[3],43.7 and 44.9
same,DBC at 5% BT (mg Ab/mL resin),[4],51.7
